# Data reported in US20230357429A1 (JANUX THERAPEUTICS, published 2023).
# Read-outs that look alike come from different tables or passages of the source. Where no end group is shown, it is not given here.
# T1: Peptide-71 (cysteine pairing not given here; also: biotinylated, site not given here)
# T1 construct: mask peptide for the CD3 scFv
# T1 peptide: VDCGPDGDESILCY
# T2: Peptide-75 (cysteine pairing not given here; also: biotinylated, site not given here)
# T2 construct: mask peptide for the CD3 scFv
# T2 peptide: GSACLGPEWEVCPY
# T3: Peptide-67 (cysteine pairing not given here; also: biotinylated, site not given here)
# T3 construct: mask peptide for the CD3 scFv
# T3 peptide: VYCGPEFDESVGCM
# T4: Peptide-74 (cysteine pairing not given here; also: biotinylated, site not given here)
# T4 construct: mask peptide for the CD3 scFv
# T4 peptide: ASQCLGPEWEVCPY
# T5: Peptide-69 (cysteine pairing not given here; also: biotinylated, site not given here)
# T5 construct: mask peptide for the CD3 scFv
# T5 peptide: SECLVDLQSDPCYW
# T6: Peptide-68 (cysteine pairing not given here; also: biotinylated, site not given here)
# T6 construct: mask peptide for the CD3 scFv
# T6 peptide: DWCWYSPDNDGLCD
# T7: Peptide-66 (cysteine pairing not given here; also: biotinylated, site not given here)
# T7 construct: mask peptide for the CD3 scFv
# T7 peptide: GSQCLGPEWEVCPY
# T8: Peptide-72 (cysteine pairing not given here; also: biotinylated, site not given here)
# T8 construct: mask peptide for the CD3 scFv
# T8 peptide: AYCGPEFDESVGCM
# T9: Peptide-65 (cysteine pairing not given here; also: biotinylated, site not given here)
# T9 construct: mask peptide for the CD3 scFv
# T9 peptide: QGCGTIADPEPHCW
# T10: Human TROP2 ECD (31-274 AA), biotinylated (human, UniProt P09758 31-274, biotinylated (site not stated))
# T10 construct: also called tumor-associated calcium signal transducer 2; Human TROP2-biotin
# T10 sequence: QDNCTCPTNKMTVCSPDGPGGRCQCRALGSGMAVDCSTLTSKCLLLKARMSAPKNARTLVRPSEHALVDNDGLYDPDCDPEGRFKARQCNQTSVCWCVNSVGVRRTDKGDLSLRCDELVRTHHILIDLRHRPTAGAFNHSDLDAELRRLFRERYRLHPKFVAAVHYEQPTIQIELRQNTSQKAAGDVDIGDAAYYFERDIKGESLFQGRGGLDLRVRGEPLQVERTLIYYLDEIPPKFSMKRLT
# T11: Peptide-70 (cysteine pairing not given here; also: biotinylated, site not given here)
# T11 construct: mask peptide for the CD3 scFv
# T11 peptide: YLCGPDGDETLACY
# T12: Peptide-73 (cysteine pairing not given here; also: biotinylated, site not given here)
# T12 construct: mask peptide for the CD3 scFv
# T12 peptide: VYCGPEFDESVGCA
# B1: TCE-10 (anti-CD3 scFv R100A; anti-TROP2 wt) (bispecific antibody)
# light: DIQLTQSPSSLSASVGDRVSITCKASQDVSIAVAWYQQKPGKAPKLLIYSASYRYTGVPDRFSGSGSGTDFTLTISSLQPEDFAVYYCQQHYITPLTFGAGTKVEIKRTVAAPSVFIFPPSDEQLKSGTASVVCLLNNFYPREAKVQWKVDNALQSGNSQESVTEQDSKDSTYSLSSTLTLSKADYEKHKVYACEVTHQGLSSPVTKSFNRGEC
# heavy: not shown
# notes: scFv on the Fab heavy chain; also called TCE-10 (R100A)
# B2: PC-3 + MTSP1 (bispecific antibody)
# light: DIQLTQSPSSLSASVGDRVSITCKASQDVSIAVAWYQQKPGKAPKLLIYSASYRYTGVPDRFSGSGSGTDFTLTISSLQPEDFAVYYCQQHYITPLTFGAGTKVEIKRTVAAPSVFIFPPSDEQLKSGTASVVCLLNNFYPREAKVQWKVDNALQSGNSQESVTEQDSKDSTYSLSSTLTLSKADYEKHKVYACEVTHQGLSSPVTKSFNRGEC
# chain: not shown
# modifications: Protease-treated product: both masks and the anti-albumin domain are cut off in the cleavable linkers.
# notes: not shown: The few linker residues left at the N-terminus of each chain after the MTSP1 cut
# B3: PC-2 + MTSP1 (bispecific antibody)
# light: DIQLTQSPSSLSASVGDRVSITCKASQDVSIAVAWYQQKPGKAPKLLIYSASYRYTGVPDRFSGSGSGTDFTLTISSLQPEDFAVYYCQQHYITPLTFGAGTKVEIKRTVAAPSVFIFPPSDEQLKSGTASVVCLLNNFYPREAKVQWKVDNALQSGNSQESVTEQDSKDSTYSLSSTLTLSKADYEKHKVYACEVTHQGLSSPVTKSFNRGEC
# chain: not shown
# modifications: Protease-treated product: both masks and the anti-albumin domain are cut off in the cleavable linkers.
# notes: as for B2
# B4: TCE-26 (anti-CD3 scFv W233A; anti-TROP2 HC wt) (bispecific antibody)
# light: DIQLTQSPSSLSASVGDRVSITCKASQDVSIAVAWYQQKPGKAPKLLIYSASYRYTGVPDRFSGSGSGTDFTLTISSLQPEDFAVYYCQQHYITPLTFGAGTKVEIKRTVAAPSVFIFPPSDEQLKSGTASVVCLLNNFYPREAKVQWKVDNALQSGNSQESVTEQDSKDSTYSLSSTLTLSKADYEKHKVYACEVTHQGLSSPVTKSFNRGEC
# heavy: not shown
# notes: scFv on the Fab heavy chain; also called TCE-26 (W233A)
# Tests used:
# [1] = biological target: T13, CD3 (biotinylated CD3 antigen) (human, UniProt P07766 23-126, limits assumed, biotinylated (site not stated)); assay: ELISA, TCE on captured biotin-CD3
# T13 construct: also called CD3ε; human CD3
# Peptide-71 [2] = biological target: T1, Peptide-71; assay: ELISA, TCE on captured biotin-peptide
# Peptide-75 [3] = biological target: T2, Peptide-75; assay: ELISA, TCE on captured biotin-peptide
# Peptide-67 [4] = biological target: T3, Peptide-67; assay: ELISA, TCE on captured biotin-peptide
# Peptide-74 [5] = biological target: T4, Peptide-74; assay: ELISA, TCE on captured biotin-peptide
# Peptide-69 = biological target: T5, Peptide-69; assay: ELISA, TCE on captured biotin-peptide
# Peptide-68 [6] = biological target: T6, Peptide-68; assay: ELISA, TCE on captured biotin-peptide
# Peptide-66 [7] = biological target: T7, Peptide-66; assay: ELISA, TCE on captured biotin-peptide
# Peptide-72 = biological target: T8, Peptide-72; assay: ELISA, TCE on captured biotin-peptide
# Peptide-65 = biological target: T9, Peptide-65; assay: ELISA, TCE on captured biotin-peptide
# [8] = biological target: T10, Human TROP2 ECD (31-274 AA), …; assay: ELISA on immobilized TROP2; binder pre-treated with MTSP1
# Peptide-71 [9] = biological target: T1, Peptide-71; assay: ELISA, TCE on captured biotin-peptide
# Peptide-75 [10] = biological target: T2, Peptide-75; assay: ELISA, TCE on captured biotin-peptide
# Peptide-67 [11] = biological target: T3, Peptide-67; assay: ELISA, TCE on captured biotin-peptide
# Peptide-70 = biological target: T11, Peptide-70; assay: ELISA, TCE on captured biotin-peptide
# Peptide-74 [12] = biological target: T4, Peptide-74; assay: ELISA, TCE on captured biotin-peptide
# Peptide-68 [13] = biological target: T6, Peptide-68; assay: ELISA, TCE on captured biotin-peptide
# Peptide-66 [14] = biological target: T7, Peptide-66; assay: ELISA, TCE on captured biotin-peptide
# Peptide-73 = biological target: T12, Peptide-73; assay: ELISA, TCE on captured biotin-peptide
# [15] = biological target: T13, CD3 (biotinylated CD3 antigen); assay: ELISA: biotinylated CD3 captured on neutravidin plates, TCE titrated, HRP secondary antibody
# T13 sequence (P07766 23-126 limits assumed): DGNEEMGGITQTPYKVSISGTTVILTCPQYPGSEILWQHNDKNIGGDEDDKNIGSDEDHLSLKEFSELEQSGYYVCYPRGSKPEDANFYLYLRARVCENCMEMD
binder,measurement,setting,value
B1,EC50,[1],0.35 nM
same,EC50,Peptide-71 [2],0.63 nM
same,EC50,Peptide-75 [3],0.76 nM
same,EC50,Peptide-67 [4],1.76 nM
same,EC50,Peptide-74 [5],0.68 nM
same,EC50,Peptide-69,8.73 nM
same,EC50,Peptide-68 [6],1.78 nM
same,EC50,Peptide-66 [7],0.58 nM
same,EC50,Peptide-72,1.85 nM
same,EC50,Peptide-65,473 nM
B2,EC50,[8],0.42 nM
B3,EC50,[8],0.45 nM
B4,EC50,Peptide-71 [9],4.69 nM
same,EC50,Peptide-75 [10],6.26 nM
same,EC50,Peptide-67 [11],6.46 nM
same,EC50,Peptide-70,0.95 nM
same,EC50,Peptide-74 [12],5.47 nM
same,EC50,Peptide-68 [13],2.68 nM
same,EC50,Peptide-66 [14],6.28 nM
same,EC50,Peptide-73,6.63 nM
same,EC50,[15],1.81 nM
